{
  "source": "the nanobody polyreactivity screen of Harvey et al. (2022)",
  "data": [
    {"assay": "yeast display, Sf9 membrane polyspecificity reagent, FACS + sequencing; frameworks hold sequencing errors", "outline": "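After 36–48 hours of galactose induction, yeast (Saccharomyces cerevisiae BJ5465) displaying a synthetic nanobody library were stained at 4 °C for 1 hour with 10% biotinylated, detergent-solubilized Sf9 membrane reagent. Streptavidin microbeads enriched the stained cells before FACS sorting into low and high (top ~1%) gates on anti-HA and streptavidin fluorescence. Each clone's polyreactivity label reflects its gate of origin.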", "values": [
      {"sequence": "QDKLVESGGGLVQAGGSLRLSCAPSGSIFYGYAMGWYRQAPGKESELVAAMSSTGGTTYYADSVKGRFTISRDNAKNTVYLQMNSQKPEDTAVYYCAKRGRTWRYPFDYWGQGTQVTVSS", "polyreactivity (PSR sort gate)": "high polyreactivity"},
      {"sequence": "QDQHVESGGGLVQAGGSLRLSCAASGFTFPLKAMGWSRQAPGKERELVAVINYSDGSTYYADSVKGRFSISRDNAKNTVYLQMNSLTPEDTAVYYCAARYYTTYYWGQGTQVTVSS", "polyreactivity (PSR sort gate)": "high polyreactivity"},
      {"sequence": "QDQHVESGGGLVQAGGSLRLSCAASGIIFWWYDMGWFRQAPGKERELVAAISTGSRTNYADSVKGRFTISRDNAKNTVYLQMNSLKPEDTAVYYCAGEWVGFSGYYGSGYEMDYWGQGTQVTVSS", "polyreactivity (PSR sort gate)": "low polyreactivity"},
      {"sequence": "QDQHVESGGGLVQAGGSLRLSCAASGIIFYRYAMGWYRQAPGKERELVAAIRRSGGSTFYADSVKGRFTISRDNAKNTVYLQMNCLKPVDTAVYYCAAVYTGDPYGYWGQGTQVTVSS", "polyreactivity (PSR sort gate)": "high polyreactivity"},
      {"sequence": "QDQHVESGGGLVQAGGSLRLSCAASGITFNKYAMGWYRQAPGKERELVAAISFSGGSTYYADSVKGRFTISRDNAKNTVYLQMNSLKPEVTAVYYCAAVWGYVIWVDTAVYREYDYWGQGTQVTVSS", "polyreactivity (PSR sort gate)": "high polyreactivity"},
      {"sequence": "QDQHVESGGGLVQAGGSLRLSCAASGSNFVINAMGWYRQAPGKEREWVAAITSSGGSTYYADSVKGRFTISRDNAKNTVYLQMNSLKPEDTAVYYCAAYVRTAFGRMNYWGQGTLVTVSS", "polyreactivity (PSR sort gate)": "high polyreactivity"},
      {"sequence": "QDQHVESGGGLVQAGGSLRLSCAASGSTFKIYAMGWYRQPHGKESELVARITGRGGSTYYADSVKGRFTISRDNAKNTVYLQMNSLKPEDTAVYYCAARVYTYYDDLHKRYYWGQGTQVTVSS", "polyreactivity (PSR sort gate)": "high polyreactivity"},
      {"sequence": "QDQHVESGGGLVQAGGSLRLSCAASGSTFPYYAMGWYRQAPGKERELVAAITSSGGSTYYADSVKGRFTISRVNAKNTVYLQMNSLKPEDTAVYYCANGYGPYRQMNYWGQGTQVTVSS", "polyreactivity (PSR sort gate)": "low polyreactivity"},
      {"sequence": "QDQHVESGGGLVQAGGSLRLSCDASGFIFPYYVMGWYRQAPGKERELVAGISSGGRTNYADSVKGRFTISRDNAKNTVYLQMISLKPEDTAVYYCNDRWYRYPPRVRLYYWGQGTQVTVSS", "polyreactivity (PSR sort gate)": "high polyreactivity"},
      {"sequence": "QDQHVESGGGLVQAGGSLRLSCDASGFIFTYYAMGWYRQAPGKERELVAAISRSGGNTYYADSVKGRFTISRDNAKNTVYLQMNSLIPEDTAVYYCAAETRRGGYWGYEYYYWGQGTQVTVSS", "polyreactivity (PSR sort gate)": "high polyreactivity"},
      {"sequence": "QDQHVESGGGLVQAVGSLRLSCAASGRIIVDYAMGWYRQAPGKERDLVATITNGGSTNYADSVKGRFTISRDNAKNTVYLQMNSLKPEDTAVYYCAVDYLLDYYSYIEDYWGQGTQVTVSS", "polyreactivity (PSR sort gate)": "low polyreactivity"},
      {"sequence": "QDQIGESGGGLVQAGGSLSLSCAASGTTIVNNAMGRNRQARWKERELVAAITQRGGRSSYADSVNGRFTISRDNAKNTVYLQMNSLKPEDTAVYYCATVATCRHKGKYNYLGQGTQVTVSS", "polyreactivity (PSR sort gate)": "low polyreactivity"},
      {"sequence": "QDQIVESGGGLVQAGGSLRISCAPSGSILGYYGMGWYRQAPGKERELVAAISSSGNTNYADSVKGRFTISRDNAKNTVYFQMNSLKPDDTAVYYCAASFQYVAYFLYVYWGQGTQVTVSS", "polyreactivity (PSR sort gate)": "low polyreactivity"},
      {"sequence": "QDQIVESGGGVVQAGGSLRLSCASSGRIFYDYLGWNRQAPGKETELDADISSGGSTHYADSVKGRFTISRDNAKNTVYLQMNSLKGEDTAVYYCIAVLVLSYDKDWRLIEMDYWGQGTHVTVSS", "polyreactivity (PSR sort gate)": "low polyreactivity"},
      {"sequence": "QDQLEESGGGLSQAGGSLRLSCAASGINFPSYTMGWSRQATGKERELVAAIDSGGSTYYADSVKGRFTISRDNAKNSVYLQMNSLIPEDTAVYYCAAEPDTYWYTYDYWGQGTQVSVSS", "polyreactivity (PSR sort gate)": "low polyreactivity"},
      {"sequence": "QDQLEESGGGLVQAGGSLRLSCAASGSTCVKYARGWYRPAPGKERELVAAISTRGGTTYYADSVKGRFTISRDNAKNTVYLQMNSLKPEDTAVYYCATGSYSRGVAYGYWGQGTQVTVSS", "polyreactivity (PSR sort gate)": "high polyreactivity"},
      {"sequence": "QDQLEESGGGLVQAGGSLRLSCAASGYTISPNDMGWYRQAPGKERELVAAITSSVGSTYYADSVKGRFSFSRDNAKNTVYLQMKSLKPEDTAVYYYWGQGTQVTVSS", "polyreactivity (PSR sort gate)": "low polyreactivity"}
    ]}
  ]
}
